For this assay, the target named is Pfs25 (Plasmodium falciparum) (UniProt P13829). Description: cell-based or functional assay.
Sequence of UniProt P13829 (P13829 17-196): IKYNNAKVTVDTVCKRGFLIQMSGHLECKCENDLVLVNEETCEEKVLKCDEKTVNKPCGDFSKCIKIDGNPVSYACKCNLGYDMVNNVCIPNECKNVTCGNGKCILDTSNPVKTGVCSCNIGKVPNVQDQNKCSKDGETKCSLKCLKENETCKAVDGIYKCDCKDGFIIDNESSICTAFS

As for anti-Pfs25 mAb 4B7 (antibody), the % inhibition estimate (standard membrane feeding assay, SMFA) was 93.8%.

These data come from patent US20210324015A1.
